From patent US20240376170A1 (BRIGHT PEAK THERAPEUTICS, published 2024)
Bridges are numbered along the chain shown (N, C = ends). Primed or numbered codes have the meaning given here. [ ]: non-standard residue; d: D form. 8x polyethylene glycol‑amino = O-(8x polyethylene glycol-amino)-tyrosine, SITE 45; 9x polyethylene glycol‑azido = O-(9x polyethylene glycol-azido)-tyrosine, SITE 42; Ygp = O-(8x polyethylene glycol-amino)-tyrosine (Tyr, amino-capped PEG8); Yn3 = O-(9x polyethylene glycol-azido)-tyrosine (Tyr, azide-capped PEG9); Ygp″ = O-(8x polyethylene glycol-amino)-tyrosine; Yn3″ = O-(9x polyethylene glycol-azido)-tyrosine; Ygp(6) = Tyr, amino-capped PEG8; Yn3(6) = Tyr, azide-capped PEG9; PEG4′ = 4x polyethylene glycol; hSer = N[C@@H](CCO)C(=O)O; Nle = CCCC[C@H](N)C(=O)O

T1: IL-2Rβγ on HEK-Blue IL-2Rβγ reporter cells (InvivoGen) (UniProt P14784 27-551; P31785 23-369, limits assumed)
T1 sequence (looked up) 1: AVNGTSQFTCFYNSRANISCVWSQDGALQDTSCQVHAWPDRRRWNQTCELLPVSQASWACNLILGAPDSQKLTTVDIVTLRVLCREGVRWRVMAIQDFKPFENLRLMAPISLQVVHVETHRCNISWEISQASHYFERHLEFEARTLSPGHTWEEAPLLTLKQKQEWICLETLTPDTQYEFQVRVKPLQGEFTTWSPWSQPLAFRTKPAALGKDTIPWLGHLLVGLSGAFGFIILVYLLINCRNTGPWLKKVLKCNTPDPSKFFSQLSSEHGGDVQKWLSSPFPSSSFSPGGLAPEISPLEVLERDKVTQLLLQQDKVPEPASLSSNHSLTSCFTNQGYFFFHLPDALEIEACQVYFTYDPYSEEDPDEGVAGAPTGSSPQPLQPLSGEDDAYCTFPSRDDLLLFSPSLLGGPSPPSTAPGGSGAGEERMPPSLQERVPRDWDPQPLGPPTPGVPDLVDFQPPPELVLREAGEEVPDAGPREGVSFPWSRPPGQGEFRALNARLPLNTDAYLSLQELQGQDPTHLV
T1 sequence (looked up) 2: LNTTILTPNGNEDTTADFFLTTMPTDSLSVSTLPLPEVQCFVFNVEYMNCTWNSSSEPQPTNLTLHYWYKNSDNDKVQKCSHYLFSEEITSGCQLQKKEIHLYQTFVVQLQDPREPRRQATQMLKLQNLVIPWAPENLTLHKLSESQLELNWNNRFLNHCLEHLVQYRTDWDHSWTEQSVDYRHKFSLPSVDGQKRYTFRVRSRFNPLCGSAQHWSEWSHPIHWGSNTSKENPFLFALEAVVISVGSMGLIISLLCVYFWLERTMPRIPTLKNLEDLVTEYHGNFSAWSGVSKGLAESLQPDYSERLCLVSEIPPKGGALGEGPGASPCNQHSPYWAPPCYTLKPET

B1: CMP-321, matriptase cleaved (ligand)
chain: SGRVQPLVDAPTSSSTKKTQLQLEHLLLDLQEILNGINNYKNPKLTR[Nle]L[hSer][Yn3(6)]KF[Ygp(6)][Nle]PKKATELKHLQCLEEELKPLEEVL[hSer]LAQSKNFHLRPRDLISNINVIVLELKGSETTF[hSer]CEYADETATIVEFLNRWITFSQSIISTLT
modifications: not fully specified (bridges)
B2: CMP-318 (ligand)
chain: SGRVANLVGAPTSSSTKKTQLQLEHLLLDLQEILNGINNYKNPKLTR[Nle]L[hSer][Yn3]KF[Ygp][Nle]PKKATELKHLQCLEEELKPLEEVL[hSer]LAQSKNFHLRPRDLISNINVIVLELKGSETTF[hSer]CEYADETATIVEFLNRWITFSQSIISTLT
modifications: lactam N-32; ends not checked
B3: CMP-300 (ligand)
chain: GPLGLAG[PEG4′]APTSSSTKKTQLQLEHLLLDLQEILNGINNYKNPKLTR[Nle]L[hSer][Yn3″]KF[Ygp″][Nle]PKKATELKHLQCLEEELKPLEEVL[hSer]LAQSKNFHLRPRDLISNINVIVLELKGSETTF[hSer]CEYADETATIVEFLNRWITFSQSIISTLT
modifications: lactam N-31; ends not checked
B4: CMP-315, matriptase cleaved (ligand)
chain: APTSSSTKKTQLQLEHLLLDLQKILNGINNYKNPKLTR[Nle]L[hSer][Yn3]KF[Ygp][Nle]PKKATELKHLQCLEEELKPLEEVL[hSer]LAQSKNFHLRPRDLISNINVIVLELKGSETTF[hSer]CEYADETATIVEFLNRWITFSQSIISTLT
modifications: ends and bridges not checked; also: further groups not given here, tested after matriptase cleavage, remaining product not given here
B5: CMP-321 (ligand)
chain: SGRVQPLVDAPTSSSTKKTQLQLEHLLLDLQEILNGINNYKNPKLTR[Nle]L[hSer][Yn3(6)]KF[Ygp(6)][Nle]PKKATELKHLQCLEEELKPLEEVL[hSer]LAQSKNFHLRPRDLISNINVIVLELKGSETTF[hSer]CEYADETATIVEFLNRWITFSQSIISTLT
modifications: lactam N-32
B6: CMP-330, matriptase cleaved (ligand)
chain: APTSSSTKKTQLQLEHLLLDLQEILNGINNYKNPKLTR[Nle]L[hSer]Y(9x polyethylene glycol‑azido)KFY(8x polyethylene glycol‑amino)[Nle]PKKATELKHLQCLEEELKPLEEVL[hSer]LAQSKNFHLRPRDLISNINVIVLELKGSETTF[hSer]CEYADETATIVEFLNRWITFSQSIISTLT
modifications: not fully specified; also: before the cut Lys9 and Glu23 side chains are bridged by a peptide linker, what remains after the cut not given here
B7: CMP-316, matriptase cleaved (ligand)
chain: APTSSSTKKTQLQLEHLLLDLQKILNGINNYKNPKLTR[Nle]L[hSer][Yn3]KF[Ygp][Nle]PKKATELKHLQCLEEELKPLEEVL[hSer]LAQSKNFHLRPRDLISNINVIVLELKGSETTF[hSer]CEYADETATIVEFLNRWITFSQSIISTLT
modifications: ends and bridges not checked; also: further groups not given here, tested after matriptase cleavage, remaining product not given here
B8: CMP-316, uPa cleaved (ligand)
chain: APTSSSTKKTQLQLEHLLLDLQKILNGINNYKNPKLTR[Nle]L[hSer][Yn3]KF[Ygp][Nle]PKKATELKHLQCLEEELKPLEEVL[hSer]LAQSKNFHLRPRDLISNINVIVLELKGSETTF[hSer]CEYADETATIVEFLNRWITFSQSIISTLT
modifications: ends and bridges not checked; also: further groups not given here, tested after uPa cleavage, remaining product not given here
B9: CMP-329, matriptase cleaved (ligand)
chain: APTSSSTKKTQLQLEHLLLDLQEILNGINNYKNPKLTR[Nle]L[hSer][Yn3″]KF[Ygp″][Nle]PKKATELKHLQCLEEELKPLEEVL[hSer]LAQSKNFHLRPRDLISNINVIVLELKGSETTF[hSer]CEYADETATIVEFLNRWITFSQSIISTLT
modifications: ends and bridges not checked; also: after matriptase cleavage, remnants of the Lys9–Glu23 peptide linker not given here
B10: CMP-300, MMP2 cleaved (ligand)
chain: APTSSSTKKTQLQLEHLLLDLQEILNGINNYKNPKLTR[Nle]L[hSer][Yn3″]KF[Ygp″][Nle]PKKATELKHLQCLEEELKPLEEVL[hSer]LAQSKNFHLRPRDLISNINVIVLELKGSETTF[hSer]CEYADETATIVEFLNRWITFSQSIISTLT
modifications: ends and bridges not checked; also: MMP2 cleaved, ring opened, cut site and remnants not given here
B11: CMP-328, matriptase cleaved (ligand)
chain: APTSSSTKKTQLQLEHLLLDLQEILNGINNYKNPKLTR[Nle]L[hSer][Yn3]KF[Ygp][Nle]PKKATELKHLQCLEEELKPLEEVL[hSer]LAQSKNFHLRPRDLISNINVIVLELKGSETTF[hSer]CEYADETATIVEFLNRWITFSQSIISTLT
modifications: also: matriptase-cleaved, before the cut Lys9-Glu23 side chains bridged by peptide linker, product not given here
B12: CMP-330, uPa cleaved (ligand)
chain: APTSSSTKKTQLQLEHLLLDLQEILNGINNYKNPKLTR[Nle]L[hSer]Y(9x polyethylene glycol‑azido)KFY(8x polyethylene glycol‑amino)[Nle]PKKATELKHLQCLEEELKPLEEVL[hSer]LAQSKNFHLRPRDLISNINVIVLELKGSETTF[hSer]CEYADETATIVEFLNRWITFSQSIISTLT
modifications: not fully specified; also: before the cut Lys9 and Glu23 side chains are bridged by a peptide linker, what remains after the cut not given here
B13: CMP-329, uPa cleaved (ligand)
chain: APTSSSTKKTQLQLEHLLLDLQEILNGINNYKNPKLTR[Nle]L[hSer][Yn3″]KF[Ygp″][Nle]PKKATELKHLQCLEEELKPLEEVL[hSer]LAQSKNFHLRPRDLISNINVIVLELKGSETTF[hSer]CEYADETATIVEFLNRWITFSQSIISTLT
modifications: ends and bridges not checked; also: uPa-cleaved, cut in the RQRRSVVGG bridge between Lys9 and Glu23, remaining fragments not given here
B14: CMP-328, uPa cleaved (ligand)
chain: APTSSSTKKTQLQLEHLLLDLQEILNGINNYKNPKLTR[Nle]L[hSer][Yn3]KF[Ygp][Nle]PKKATELKHLQCLEEELKPLEEVL[hSer]LAQSKNFHLRPRDLISNINVIVLELKGSETTF[hSer]CEYADETATIVEFLNRWITFSQSIISTLT
modifications: also: uPa-cleaved, before the cut Lys9-Glu23 side chains bridged by peptide linker, product not given here
B15: CMP-320 (ligand)
chain: SGRVAPQPLVDAPTSSSTKKTQLQLEHLLLDLQEILNGINNYKNPKLTR[Nle]L[hSer][Yn3(6)]KF[Ygp(6)][Nle]PKKATELKHLQCLEEELKPLEEVL[hSer]LAQSKNFHLRPRDLISNINVIVLELKGSETTF[hSer]CEYADETATIVEFLNRWITFSQSIISTLT
modifications: lactam N-34
B16: CMP-315, uPa cleaved (ligand)
chain: APTSSSTKKTQLQLEHLLLDLQKILNGINNYKNPKLTR[Nle]L[hSer][Yn3]KF[Ygp][Nle]PKKATELKHLQCLEEELKPLEEVL[hSer]LAQSKNFHLRPRDLISNINVIVLELKGSETTF[hSer]CEYADETATIVEFLNRWITFSQSIISTLT
modifications: ends and bridges not checked; also: further groups not given here, tested after uPa cleavage, remaining product not given here

Target: T1, IL-2Rβγ on HEK-Blue IL-2Rβγ reporter …
Experiment: cell-based or functional assay

Row | Binder | Average EC50, HEK-Blue IL-2R (CD122+, CD132+) Reporter Assay, Matriptase cleaved molecule [nM] | Average EC50, HEK-Blue IL-2R (CD122+, CD132+) Reporter Assay, uPa cleaved molecule [nM] | further results
1 | B1 | 4.22 |  | 
2 | B2 |  |  | Average EC50, HEK-Blue IL-2R (CD122+, CD132+) Reporter Assay, intact molecule: 3.37 nM
3 | B3 |  |  | Average EC50, HEK-Blue IL-2R (CD122+, CD132+) Reporter Assay, intact molecule: 0.711 nM
4 | B4 | 0.0349 |  | 
5 | B5 |  |  | Average EC50, HEK-Blue IL-2R (CD122+, CD132+) Reporter Assay, intact molecule: 4.2 nM
6 | B6 | 2.15 |  | 
7 | B7 | 0.0828 |  | 
8 | B8 |  | 0.0884 | 
9 | B9 | 1.47 |  | 
10 | B10 |  |  | Average EC50, HEK-Blue IL-2R (CD122+, CD132+) Reporter Assay, MMP2 cleaved molecule: 0.0094 nM
11 | B11 | 0.352 |  | 
12 | B12 |  | 1.73 | 
13 | B13 |  | 1.41 | 
14 | B14 |  | 0.571 | 
15 | B15 |  |  | Average EC50, HEK-Blue IL-2R (CD122+, CD132+) Reporter Assay, intact molecule: 0.775 nM
16 | B16 |  | 0.0581 | 
